Data: IntAct's records for PubMed 9753447

B1: Ferredoxin--NADP reductase (Anabaena sp. (strain PCC 7119)), P21890 (parent)
chain: MSNQGAFDGAANVESGSRVFVYEVVGMRQNEETDQTNYPIRKSGSVFIRVPYNRMNQEMQRITRLGGKIVTIQTVSALQQLNGRTTIATVTDASSEIAKSEGNGKATPVKTDSGAKAFAKPPAEEQLKKKDNKGNTMTQAKAKHADVPVNLYRPNAPFIGKVISNEPLVKEGGIGIVQHIKFDLTGGNLKYIEGQSIGIIPPGVDKNGKPEKLRLYSIASTRHGDDVDDKTISLCVRQLEYKHPESGETVYGVCSTYLTHIEPGSEVKITGPVGKEMLLPDDPEANVIMLATGTGIAPMRTYLWRMFKDAERAANPEYQFKGFSWLVFGVPTTPNILYKEELEEIQQKYPDNFRLTYAISREQKNPQGGRMYIQDRVAEHADELWQLIKNQKTHTYICGLRGMEEGIDAALSAAAAKEGVTWSDYQKDLKKAGRWHVETY
B2: Ferredoxin--NADP reductase (Anabaena sp. (strain PCC 7119)), P21890 (parent)
chain: B1 chain
partner: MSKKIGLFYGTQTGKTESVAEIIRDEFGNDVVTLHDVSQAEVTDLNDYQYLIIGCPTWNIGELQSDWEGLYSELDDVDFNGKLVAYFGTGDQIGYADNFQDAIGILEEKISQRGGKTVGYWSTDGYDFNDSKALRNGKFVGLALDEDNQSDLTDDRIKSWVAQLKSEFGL

Variants of: B1
Details: with fer1_nosso petF
In the case of K206S, the “effect of a mutation on the interaction” value is reported as “decreasing interaction”.
With K206E the “effect of a mutation on the interaction” value was “decreasing interaction”.
K206Q was tested, and the “effect of a mutation on the interaction” value was “decreasing interaction”.

Variants of: B2
Details: with flav_nosso isiB
For K206E, the “effect of a mutation on the interaction” value was “decreasing interaction”.
For K206Q, the “effect of a mutation on the interaction” value was “decreasing interaction”.
With K206S the “effect of a mutation on the interaction” value was “decreasing interaction”.
